In patent US20260158095A1, “PLANT EXTRACT AND USE THEREOF IN TOPICAL COMPOSITIONS” (TERM HELVET SA, priority 2021, published 2026):

Tested on: human keratinocyte culture
Assay: Filopodia formation in human keratinocyte culture (rhodamine-phalloidin staining, fluorescence microscopy)
Assay type: cell-based
Settings: human keratinocytes
Experimental: Table 2 indicates the intensity of filopodia formation (number and surface area) in vitro in four keratinocyte cultures under four operating conditions, after treatment with: • a solvent, • HB-EGF (heparin-binding epidermal growth factor), • Picrorhiza kurroa extract obtained without hydrolysis, and • Picrorhiza kurroa extract obtained following hydrolysis.
The test is performed using a human keratinocyte culture divided into four batches. Cells are treated for 1 h with the products to be tested, fixed in 4% formalin, and then stained with rhodamine-conjugated α-phalloidin (α-phalloidin has high affinity for actin filaments, and its conjugation to rhodamine makes actin filaments fluorescent [540 nm; 565 nm]). The cell morphology is then analyzed under a fluorescence microscope (FIG. 2). • A, solvent, negative (no stimulation); • B, HB-EGF (heparin-binding epidermal growth factor), reference epidermal trophic factor, 5 ng/ml; • C, Picrorhiza kurroa extract obtained without hydrolysis, 100 μg/ml; • D, Picrorhiza kurroa extract obtained following hydrolysis, 100 μg/ml.

B1: HB-EGF: heparin-binding epidermal growth factor, reference epidermal trophic factor, positive control (protein, UniProt Q99075 63-148, looked up)
Heparin-binding EGF-like …: DLQEADLDLLRVTLSSKPQALATPNKEEHGKRKKKGKGLGKKRDPCLRKYKDFCIHGECKYVKELRAPSCICHPGYHGERCHGLSL
Visual evaluation of the production of filopodia (scale from 0 to 3) (5 ng/ml, 1 h treatment): 3
Intensity of filopodia formation (effect in words) (HB-EGF 5 ng/ml, extracts 100 μg/ml, 1 h): intense effect
